tested on: Escherichia coli TOP10; experiment: shrunken log2 fold change of peptide-encoding DNA abundance (4.5 h post-induction vs induction); higher = less antimicrobial activity (less host growth inhibition); details: time post-induction: 4.5 h; library: site-saturation at positions 5, 18, 19, 20
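Further: peptides expressed intracellularly from a pBAD plasmid library in pooled LB shake-flask culture, induced with 0.3% L-arabinose, DNA abundance read by NGS, three biological replicates, DESeq2 with apeglm shrinkage.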

Compared with RRIRDRPPRLPRPRPRPSARPRP, RRIRFRPPRLPRPRPRPWTYPRP is lower in “shrunken log2 fold change” value: 0.465 for the first, -0.0132 for the second.

Going from RRIRFRPPRLPRPRPRPFAEPRP to RRIRLRPPRLPRPRPRPMNWPRP, the “shrunken log2 fold change” value rises from -0.348 to 0.134.

Compared with RRIRPRPPRLPRPRPRPGKFPRP, RRIRLRPPRLPRPRPRPRRGPRP is higher in “shrunken log2 fold change” value: -0.385 for the first, 0.543 for the second.

First: RRIRCRPPRLPRPRPRPTISPRP
Second: RRIRKRPPRLPRPRPRPEINPRP
The “shrunken log2 fold change” value of the first is lower: -0.381 for the first, 0.0365 for the second.

First: RRIRFRPPRLPRPRPRPMMEPRP
Second: RRIRPRPPRLPRPRPRPNMGPRP
The “shrunken log2 fold change” value of the first is lower: -0.426 for the first, -0.202 for the second.

Compared with RRIRARPPRLPRPRPRPCHIPRP, RRIRWRPPRLPRPRPRPTPMPRP is higher in “shrunken log2 fold change” value: 0.00153 for the first, 0.24 for the second.

RRIRVRPPRLPRPRPRPLHVPRP and RRIRFRPPRLPRPRPRPLDFPRP are within 0.2 log units of each other in “shrunken log2 fold change” value: -0.311 for the first, -0.325 for the second.

First: RRIRSRPPRLPRPRPRPQHDPRP
Second: RRIRCRPPRLPRPRPRPDRKPRP
The “shrunken log2 fold change” value of the first is higher: -0.227 for the first, -0.458 for the second.

RRIRWRPPRLPRPRPRPQRFPRP and RRIRIRPPRLPRPRPRPIPPPRP are within 0.2 log units of each other in “shrunken log2 fold change” value: 0.206 for the first, 0.112 for the second.

RRIRWRPPRLPRPRPRPYRSPRP and RRIRLRPPRLPRPRPRPCQFPRP are within 0.2 log units of each other in “shrunken log2 fold change” value: 0.0201 for the first, -0.0181 for the second.

First: RRIRGRPPRLPRPRPRPHYRPRP
Second: RRIRCRPPRLPRPRPRPKCMPRP
The “shrunken log2 fold change” value of the first is higher: 0.231 for the first, -0.483 for the second.

Going from RRIRMRPPRLPRPRPRPTMHPRP to RRIRHRPPRLPRPRPRPMYEPRP, the “shrunken log2 fold change” value falls from 0.488 to -0.0116.

First: RRIRYRPPRLPRPRPRPRCEPRP
Second: RRIRNRPPRLPRPRPRPLIFPRP
The “shrunken log2 fold change” value of the first is lower: 0.076 for the first, 1.39 for the second.

RRIRSRPPRLPRPRPRPVWPPRP and RRIRARPPRLPRPRPRPETAPRP are within 0.2 log units of each other in “shrunken log2 fold change” value: 0.434 for the first, 0.236 for the second.

First: RRIRTRPPRLPRPRPRPWFMPRP
Second: RRIRLRPPRLPRPRPRPKVEPRP
The “shrunken log2 fold change” value of the first is lower: -0.364 for the first, -0.0879 for the second.

RRIRDRPPRLPRPRPRPHARPRP and RRIRWRPPRLPRPRPRPWWGPRP are within 0.2 log units of each other in “shrunken log2 fold change” value: 0.0493 for the first, 0.0568 for the second.

RRIRHRPPRLPRPRPRPWACPRP and RRIRERPPRLPRPRPRPPIWPRP are within 0.2 log units of each other in “shrunken log2 fold change” value: -0.051 for the first, -0.0729 for the second.

First: RRIRMRPPRLPRPRPRPHDRPRP
Second: RRIRCRPPRLPRPRPRPLPAPRP
The “shrunken log2 fold change” value of the first is lower: 0.0623 for the first, 0.574 for the second.

RRIRYRPPRLPRPRPRPMTYPRP and RRIRPRPPRLPRPRPRPFAFPRP are within 0.2 log units of each other in “shrunken log2 fold change” value: -0.0131 for the first, 0.00781 for the second.

RRIRDRPPRLPRPRPRPMKAPRP and RRIRKRPPRLPRPRPRPNKPPRP are within 0.2 log units of each other in “shrunken log2 fold change” value: 0.0349 for the first, -0.0304 for the second.

Going from RRIRRRPPRLPRPRPRPNQPPRP to RRIRFRPPRLPRPRPRPNMIPRP, the “shrunken log2 fold change” value falls from -0.0317 to -0.495.

Compared with RRIRERPPRLPRPRPRPCDMPRP, RRIRPRPPRLPRPRPRPHMSPRP is lower in “shrunken log2 fold change” value: -0.0119 for the first, -0.27 for the second.

RRIRLRPPRLPRPRPRPRAPPRP and RRIRLRPPRLPRPRPRPTPDPRP are within 0.2 log units of each other in “shrunken log2 fold change” value: 0.71 for the first, 0.626 for the second.

First: RRIRMRPPRLPRPRPRPGMNPRP
Second: RRIRWRPPRLPRPRPRPQKCPRP
The “shrunken log2 fold change” value of the first is higher: -0.00589 for the first, -0.382 for the second.

Going from RRIRDRPPRLPRPRPRPWYVPRP to RRIRRRPPRLPRPRPRPTWKPRP, the “shrunken log2 fold change” value rises from -0.726 to 0.112.

Going from RRIRIRPPRLPRPRPRPNGGPRP to RRIRKRPPRLPRPRPRPRAFPRP, the “shrunken log2 fold change” value rises from -0.108 to 0.326.

First: RRIRSRPPRLPRPRPRPLTSPRP
Second: RRIRLRPPRLPRPRPRPQTIPRP
The “shrunken log2 fold change” value of the first is higher: 1.55 for the first, -0.234 for the second.

RRIRCRPPRLPRPRPRPKTRPRP and RRIRSRPPRLPRPRPRPWQEPRP are within 0.2 log units of each other in “shrunken log2 fold change” value: 0.305 for the first, 0.131 for the second.

RRIRQRPPRLPRPRPRPGTYPRP and RRIRPRPPRLPRPRPRPHQCPRP are within 0.2 log units of each other in “shrunken log2 fold change” value: 0.00894 for the first, -0.0701 for the second.

RRIRLRPPRLPRPRPRPIQAPRP and RRIRWRPPRLPRPRPRPSLHPRP are within 0.2 log units of each other in “shrunken log2 fold change” value: 0.0789 for the first, -0.044 for the second.

Compared with RRIRLRPPRLPRPRPRPQFCPRP, RRIRGRPPRLPRPRPRPDSSPRP is higher in “shrunken log2 fold change” value: -0.137 for the first, 0.217 for the second.

RRIRVRPPRLPRPRPRPCSIPRP and RRIRKRPPRLPRPRPRPFSEPRP are within 0.2 log units of each other in “shrunken log2 fold change” value: -0.0267 for the first, -0.0185 for the second.

RRIRDRPPRLPRPRPRPTHQPRP and RRIRQRPPRLPRPRPRPLQHPRP are within 0.2 log units of each other in “shrunken log2 fold change” value: 0.0642 for the first, 0.164 for the second.

Compared with RRIRLRPPRLPRPRPRPNQLPRP, RRIRRRPPRLPRPRPRPADTPRP is higher in “shrunken log2 fold change” value: -0.407 for the first, 0.423 for the second.

RRIRKRPPRLPRPRPRPHQFPRP and RRIRLRPPRLPRPRPRPNFDPRP are within 0.2 log units of each other in “shrunken log2 fold change” value: -0.114 for the first, 0.0771 for the second.

Going from RRIRERPPRLPRPRPRPRGDPRP to RRIRMRPPRLPRPRPRPGCWPRP, the “shrunken log2 fold change” value rises from 0.0639 to 0.984.

Going from RRIRLRPPRLPRPRPRPFKLPRP to RRIRMRPPRLPRPRPRPMPKPRP, the “shrunken log2 fold change” value rises from -0.294 to 0.0834.

Compared with RRIRFRPPRLPRPRPRPKTKPRP, RRIRSRPPRLPRPRPRPYVTPRP is lower in “shrunken log2 fold change” value: 0.0287 for the first, -0.266 for the second.

RRIRYRPPRLPRPRPRPLTGPRP and RRIRERPPRLPRPRPRPTFMPRP are within 0.2 log units of each other in “shrunken log2 fold change” value: -0.023 for the first, -0.157 for the second.

RRIRTRPPRLPRPRPRPSQYPRP and RRIRLRPPRLPRPRPRPWQQPRP are within 0.2 log units of each other in “shrunken log2 fold change” value: -0.142 for the first, 0.00911 for the second.

RRIRTRPPRLPRPRPRPDIKPRP and RRIRHRPPRLPRPRPRPRQVPRP are within 0.2 log units of each other in “shrunken log2 fold change” value: -0.197 for the first, -0.108 for the second.

RRIRWRPPRLPRPRPRPLEPPRP and RRIRGRPPRLPRPRPRPCWFPRP are within 0.2 log units of each other in “shrunken log2 fold change” value: 0.676 for the first, 0.584 for the second.

Compared with RRIRFRPPRLPRPRPRPIIYPRP, RRIRKRPPRLPRPRPRPNEFPRP is higher in “shrunken log2 fold change” value: -0.671 for the first, -0.042 for the second.

First: RRIRNRPPRLPRPRPRPSLLPRP
Second: RRIRYRPPRLPRPRPRPSHCPRP
The “shrunken log2 fold change” value of the first is higher: -0.19 for the first, -0.549 for the second.

RRIRERPPRLPRPRPRPGVHPRP and RRIRKRPPRLPRPRPRPYNRPRP are within 0.2 log units of each other in “shrunken log2 fold change” value: -0.139 for the first, -0.0322 for the second.

RRIRERPPRLPRPRPRPQQFPRP and RRIRMRPPRLPRPRPRPDSRPRP are within 0.2 log units of each other in “shrunken log2 fold change” value: -0.0731 for the first, -0.00783 for the second.

Going from RRIRARPPRLPRPRPRPDGIPRP to RRIRQRPPRLPRPRPRPNNMPRP, the “shrunken log2 fold change” value falls from 0.446 to -0.378.

Compared with RRIRPRPPRLPRPRPRPPMSPRP, RRIRKRPPRLPRPRPRPTMQPRP is higher in “shrunken log2 fold change” value: -0.0803 for the first, 0.626 for the second.

Compared with RRIRHRPPRLPRPRPRPNHDPRP, RRIRGRPPRLPRPRPRPPEIPRP is higher in “shrunken log2 fold change” value: -0.719 for the first, 0.851 for the second.

RRIRKRPPRLPRPRPRPIHFPRP and RRIRSRPPRLPRPRPRPIFMPRP are within 0.2 log units of each other in “shrunken log2 fold change” value: -0.241 for the first, -0.117 for the second.

Going from RRIRRRPPRLPRPRPRPVILPRP to RRIRARPPRLPRPRPRPGDAPRP, the “shrunken log2 fold change” value rises from -0.259 to 0.711.

RRIRIRPPRLPRPRPRPHCPPRP and RRIRHRPPRLPRPRPRPVNGPRP are within 0.2 log units of each other in “shrunken log2 fold change” value: -0.102 for the first, -0.0224 for the second.

RRIRFRPPRLPRPRPRPWNEPRP and RRIRYRPPRLPRPRPRPACAPRP are within 0.2 log units of each other in “shrunken log2 fold change” value: -0.173 for the first, -0.236 for the second.

RRIRNRPPRLPRPRPRPWHNPRP and RRIRPRPPRLPRPRPRPVCFPRP are within 0.2 log units of each other in “shrunken log2 fold change” value: -0.146 for the first, -0.027 for the second.

Going from RRIRPRPPRLPRPRPRPNWVPRP to RRIRYRPPRLPRPRPRPKMKPRP, the “shrunken log2 fold change” value falls from -0.2 to -0.404.

Compared with RRIRPRPPRLPRPRPRPFAPPRP, RRIRYRPPRLPRPRPRPCREPRP is lower in “shrunken log2 fold change” value: 0.14 for the first, -0.152 for the second.

Going from RRIRNRPPRLPRPRPRPCPFPRP to RRIRNRPPRLPRPRPRPRWPPRP, the “shrunken log2 fold change” value rises from -0.208 to 0.286.

In the case of RRIRCRPPRLPRPRPRPLKAPRP, the “shrunken log2 fold change” value is reported as -0.249.

Reference: the supplement of paper PMC9112550, “Optimization of the antimicrobial peptide Bac7 by deep mutational scanning” (BMC Biology, 2022)
